One data set deals with His6-MBP tag alone (UniProt P0AEX9 27-392). The data set can be described thus: EMSA; tag-only control; EMSA buffer not given in the material; Bind-n-seq: 20 mM Tris-HCl pH 8, 1 mM TCEP, 2% glycerol, 1 mM EDTA (binding buffer A) plus MgCl2, BSA and 0-500 mM KCl, room temperature 2 h. The settings on record: protein: recombinant; tags: His6-MBP; label: DIG; blunt. (In general: In EMSA bound probe runs differently from free probe, usually more slowly.)

The target in a further data set is YipR (His6-MBP fusion) (Xanthomonas campestris pv. campestris …, UniProt A0A0H2XAU1 1-344). The experiment in a line: EMSA; EMSA buffer not given in the material; Bind-n-seq: 20 mM Tris-HCl pH 8, 1 mM TCEP, 2% glycerol, 1 mM EDTA (binding buffer A) plus MgCl2, BSA and 0-500 mM KCl, room temperature 2 h. To be noted: protein: recombinant; tags: His6-MBP; label: DIG; blunt.
Sequence of YipR (His6-MBP fusion) (A0A0H2XAU1 whole entry, the tested form may be a part): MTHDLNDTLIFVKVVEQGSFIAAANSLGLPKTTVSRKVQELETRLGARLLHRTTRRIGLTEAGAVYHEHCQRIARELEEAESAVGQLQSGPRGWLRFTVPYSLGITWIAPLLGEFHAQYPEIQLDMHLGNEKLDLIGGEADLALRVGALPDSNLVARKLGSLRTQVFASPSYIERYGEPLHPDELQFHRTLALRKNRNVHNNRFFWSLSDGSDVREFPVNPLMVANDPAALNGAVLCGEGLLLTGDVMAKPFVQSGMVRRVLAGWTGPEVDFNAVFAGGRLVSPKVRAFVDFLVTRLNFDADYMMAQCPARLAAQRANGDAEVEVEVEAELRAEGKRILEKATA

B1: XC_2633P (dsDNA)
DNA 1: CCGGCTTTATCCAGATCGCCGACCTGCACCCAGGACCCAGCGGCTTGCTGACGCCCTTCAAGGACACACGGATGTGGATAGCGGGGTTCAAGCCCGACGGGAACCGCGACAAGTAACCCGGCCTCCTACTTCCCAATCCCTCTC
DNA 2: GAGAGGGATTGGGAAGTAGGAGGCCGGGTTACTTGTCGCGGTTCCCGTCGGGCTTGAACCCCGCTATCCACATCCGTGTGTCCTTGAAGGGCGTCAGCAAGCCGCTGGGTCCTGGGTGCAGGTCGGCGATCTGGATAAAGCCGG
For the molecule B1, the results for the binding result in the data set with His6-MBP tag alone and with YipR (His6-MBP fusion) were “no binding” and “binds”, respectively.
